The source of these data is PMC5467210 (2017).

For test [1], the target named is NatA complex (His6-Naa15-Naa10ΔC-His6) (Chaetomium thermophilum). Description: SEC-MALS; NatA-HypK complex (0.2 mg) on Superdex 200 10/300 in SEC buffer coupled to MALS.
The target of test [2] is T1, NatA complex (Naa15-Naa10ΔC-His6) (Chaetomium thermophilum).
T1 chain 1: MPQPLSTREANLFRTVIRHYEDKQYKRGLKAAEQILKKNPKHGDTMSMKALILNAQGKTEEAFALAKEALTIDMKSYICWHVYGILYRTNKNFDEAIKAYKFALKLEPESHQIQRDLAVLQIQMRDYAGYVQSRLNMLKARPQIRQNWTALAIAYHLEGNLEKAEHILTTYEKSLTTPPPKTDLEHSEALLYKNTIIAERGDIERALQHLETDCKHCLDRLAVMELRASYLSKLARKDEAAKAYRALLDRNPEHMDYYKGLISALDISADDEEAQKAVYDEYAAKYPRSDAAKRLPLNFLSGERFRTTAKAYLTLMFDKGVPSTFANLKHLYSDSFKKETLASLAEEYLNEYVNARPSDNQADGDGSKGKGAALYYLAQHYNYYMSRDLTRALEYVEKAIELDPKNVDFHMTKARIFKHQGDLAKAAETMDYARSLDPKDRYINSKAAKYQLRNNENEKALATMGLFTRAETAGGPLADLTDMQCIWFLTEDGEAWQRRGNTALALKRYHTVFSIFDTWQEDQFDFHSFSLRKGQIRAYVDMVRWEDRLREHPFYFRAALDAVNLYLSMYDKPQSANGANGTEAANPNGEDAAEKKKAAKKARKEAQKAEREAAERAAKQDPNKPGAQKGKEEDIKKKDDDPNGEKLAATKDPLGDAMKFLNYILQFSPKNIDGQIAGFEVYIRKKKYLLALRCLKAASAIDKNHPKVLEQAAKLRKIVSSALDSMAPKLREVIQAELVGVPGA
T1 chain 2: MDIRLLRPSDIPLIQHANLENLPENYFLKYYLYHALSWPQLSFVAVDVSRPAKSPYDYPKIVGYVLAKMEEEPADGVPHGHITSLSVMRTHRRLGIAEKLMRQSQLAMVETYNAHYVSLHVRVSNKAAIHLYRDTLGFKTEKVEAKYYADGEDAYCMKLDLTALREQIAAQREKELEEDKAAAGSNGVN
Briefly: ITC; HypK-StrepII variants (100-400 μM) in the syringe, preformed NatA (Naa15-Naa10ΔC-His6, 10-40 μM) in the cell; 25 °C; 20 mM HEPES pH 7.5, 150 mM NaCl, 10 mM MgCl2, 10 mM KCl; single-site model; triplicates.

For test [3], the target named is T1, NatA complex (Naa15-Naa10ΔC-His6). Briefly: ITC.

For the molecule “His6-HypK (full length) (natural protein)”, the stoichiometry N in test [1] worked out at 1.
In turn, “HypK-StrepII (full length) (natural protein)” displayed a dissociation constant (Kd) in test [2] of 38.3 nM.

B1: HypKΔN50-StrepII (domain or fragment)
chain: MAPAREVDQEAVKNAMSALSGASTEKKEVKKVKVDPADVNLLVEELELSKAKATELLKAHDGDAIKAMKAYIQPAF
As to B1, binding in test [3] was put at a Kd of 28.6 nM.

B2: HypK-THB-StrepII (domain or fragment)
chain: GAMGKVDPADVNLLVEELELSKAKATELLKAHDGDAIKAMKAYIQPAFGSGSGSWSHPQFEK
Consider B2, for which binding in test [3] was put at a Kd of 46.9 nM.

For orientation: stoichiometry N means the number of molecules, sites or subunits per partner or assembly. In general, Kd refers to a measure of binding affinity in units of concentration. A lower Kd goes with tighter binding.
